From the supplement of paper PMC9112550, “Optimization of the antimicrobial peptide Bac7 by deep mutational scanning” (BMC Biology, 2022)

Tested on: Escherichia coli TOP10
Assay: shrunken log2 fold change of peptide-encoding DNA abundance (4.5 h post-induction vs induction); higher = less antimicrobial activity (less host growth inhibition)
Settings: time post-induction: 4.5 h; library: site-saturation at positions 5, 18, 19, 20
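Further: peptides expressed intracellularly from a pBAD plasmid library in pooled LB shake-flask culture, induced with 0.3% L-arabinose, DNA abundance read by NGS, three biological replicates, DESeq2 with apeglm shrinkage.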

Sequence | shrunken log2 fold change
RRIRYRPPRLPRPRPRPAHYPRP | -0.18
RRIRMRPPRLPRPRPRPTRVPRP | 0.25
RRIRNRPPRLPRPRPRPYNQPRP | -0.597
RRIRHRPPRLPRPRPRPVNHPRP | -0.361
RRIRFRPPRLPRPRPRPHPLPRP | -0.16
RRIRCRPPRLPRPRPRPNGEPRP | -0.0109
RRIRCRPPRLPRPRPRPCACPRP | -0.421
RRIRIRPPRLPRPRPRPLIAPRP | -0.24
RRIRSRPPRLPRPRPRPYGPPRP | -0.401
RRIRERPPRLPRPRPRPAYGPRP | -0.108
RRIRHRPPRLPRPRPRPYYCPRP | -0.541
RRIRNRPPRLPRPRPRPVFGPRP | 0.106
RRIRYRPPRLPRPRPRPGPDPRP | 0.184
RRIRMRPPRLPRPRPRPKYVPRP | -0.0144
RRIRLRPPRLPRPRPRPINAPRP | -0.177
RRIRGRPPRLPRPRPRPKQHPRP | 0.906
RRIRKRPPRLPRPRPRPYHSPRP | 2.07
RRIRDRPPRLPRPRPRPDIQPRP | -0.228
RRIRMRPPRLPRPRPRPTCFPRP | 0.105
RRIRARPPRLPRPRPRPGPMPRP | 0.676
RRIRCRPPRLPRPRPRPKSGPRP | 0.017
RRIRDRPPRLPRPRPRPFVVPRP | -0.266
RRIRNRPPRLPRPRPRPRFPPRP | -0.365
RRIRHRPPRLPRPRPRPCEEPRP | 0.0167
RRIRPRPPRLPRPRPRPQVFPRP | 0.0117

Sequence | shrunken log2 fold change
RRIRNRPPRLPRPRPRPFWDPRP | -0.0775
RRIRRRPPRLPRPRPRPYETPRP | 0.119
RRIRARPPRLPRPRPRPHVGPRP | 0.34
RRIRRRPPRLPRPRPRPVKLPRP | -0.0474
RRIRDRPPRLPRPRPRPQYSPRP | -0.028
RRIRRRPPRLPRPRPRPPWEPRP | 0.0894
RRIRMRPPRLPRPRPRPTGEPRP | 0.0299
RRIRWRPPRLPRPRPRPDWPPRP | 0.332
RRIRSRPPRLPRPRPRPSWMPRP | -0.0505
RRIRNRPPRLPRPRPRPKEIPRP | 0.0136
RRIRTRPPRLPRPRPRPPVEPRP | 0.0458
RRIRRRPPRLPRPRPRPDHPPRP | 0.0778
RRIRCRPPRLPRPRPRPWHRPRP | 0.0363
RRIRARPPRLPRPRPRPFTFPRP | -0.0365
RRIRTRPPRLPRPRPRPATLPRP | -0.197
RRIRLRPPRLPRPRPRPIMDPRP | -0.0403
RRIRRRPPRLPRPRPRPRNHPRP | -0.0441
RRIRTRPPRLPRPRPRPEPWPRP | 0.291
RRIRNRPPRLPRPRPRPKWNPRP | -0.319
RRIRIRPPRLPRPRPRPPSNPRP | -0.613
RRIRVRPPRLPRPRPRPKRYPRP | -0.078
RRIRDRPPRLPRPRPRPKCNPRP | -0.13
RRIRCRPPRLPRPRPRPFKHPRP | -0.272
RRIRHRPPRLPRPRPRPKNAPRP | -0.223
RRIRERPPRLPRPRPRPGPGPRP | 0.268

Sequence | shrunken log2 fold change
RRIRYRPPRLPRPRPRPAVPPRP | -0.625
RRIRARPPRLPRPRPRPHEDPRP | 0.627
RRIRLRPPRLPRPRPRPRMHPRP | 0.136
RRIRQRPPRLPRPRPRPGTFPRP | -0.499
RRIRPRPPRLPRPRPRPSKSPRP | -0.123
RRIRGRPPRLPRPRPRPPNQPRP | 0.535
RRIRARPPRLPRPRPRPHHCPRP | -0.859
RRIRCRPPRLPRPRPRPICRPRP | -0.0824
RRIRFRPPRLPRPRPRPAMIPRP | -0.397
RRIRSRPPRLPRPRPRPMYRPRP | -0.172
RRIRMRPPRLPRPRPRPMVAPRP | 0.12
RRIRPRPPRLPRPRPRPYIAPRP | -0.395
RRIRGRPPRLPRPRPRPQGDPRP | 0.824
RRIRSRPPRLPRPRPRPCRPPRP | -0.584
RRIRGRPPRLPRPRPRPMSVPRP | 0.0559
RRIRIRPPRLPRPRPRPYMSPRP | -1.19
RRIRPRPPRLPRPRPRPHYGPRP | -0.569
RRIRERPPRLPRPRPRPEMLPRP | 0.0972
RRIRARPPRLPRPRPRPEVEPRP | 1.3
RRIRARPPRLPRPRPRPRKSPRP | 0.778
RRIRFRPPRLPRPRPRPPCNPRP | -0.284
RRIRHRPPRLPRPRPRPGPLPRP | 0.0825
RRIRARPPRLPRPRPRPWMSPRP | 0.0814
RRIRPRPPRLPRPRPRPNPKPRP | 0.0202
RRIRYRPPRLPRPRPRPTKNPRP | -0.495

Sequence | shrunken log2 fold change
RRIRIRPPRLPRPRPRPVHMPRP | -0.315
RRIRTRPPRLPRPRPRPSGPPRP | -0.339
RRIRIRPPRLPRPRPRPQTPPRP | -0.0927
RRIRYRPPRLPRPRPRPANVPRP | -0.00291
RRIRCRPPRLPRPRPRPSVKPRP | -0.765
RRIRQRPPRLPRPRPRPLWHPRP | -0.107
RRIRQRPPRLPRPRPRPPIVPRP | -0.015
RRIRIRPPRLPRPRPRPARFPRP | -0.0256
RRIRYRPPRLPRPRPRPMMSPRP | -0.322
RRIRGRPPRLPRPRPRPKSVPRP | 0.591
RRIRTRPPRLPRPRPRPNQGPRP | -0.493
RRIRCRPPRLPRPRPRPGVCPRP | 0.117
RRIRRRPPRLPRPRPRPRYMPRP | -0.378
RRIRFRPPRLPRPRPRPCIAPRP | -0.166
RRIRPRPPRLPRPRPRPPEFPRP | -0.122
RRIRVRPPRLPRPRPRPCFDPRP | -0.121
RRIRIRPPRLPRPRPRPFMEPRP | -0.354
RRIRARPPRLPRPRPRPTQWPRP | 0.457
RRIRERPPRLPRPRPRPAHEPRP | 0.0932
RRIRQRPPRLPRPRPRPGIGPRP | -0.005
RRIRYRPPRLPRPRPRPCLEPRP | 0.139
RRIRFRPPRLPRPRPRPIEKPRP | -0.0389
RRIRQRPPRLPRPRPRPGWLPRP | 0.193
RRIRNRPPRLPRPRPRPTFLPRP | -0.272
RRIRSRPPRLPRPRPRPCGPPRP | 0.118

Sequence | shrunken log2 fold change
RRIRFRPPRLPRPRPRPHFIPRP | -0.473
RRIRLRPPRLPRPRPRPCPVPRP | -0.393
RRIRWRPPRLPRPRPRPMCIPRP | -0.102
RRIRSRPPRLPRPRPRPFQRPRP | 0.101
RRIRTRPPRLPRPRPRPMSGPRP | -0.137
RRIRNRPPRLPRPRPRPGIEPRP | -0.0795
RRIRNRPPRLPRPRPRPPTHPRP | 0.0725
RRIRARPPRLPRPRPRPVGSPRP | 0.383
RRIRSRPPRLPRPRPRPEHHPRP | -0.153
RRIRTRPPRLPRPRPRPYYWPRP | -0.0825
RRIRRRPPRLPRPRPRPHHKPRP | -0.0355
RRIRFRPPRLPRPRPRPKNYPRP | -0.525
RRIRQRPPRLPRPRPRPLNYPRP | -0.548
RRIRVRPPRLPRPRPRPRCHPRP | 0.115
RRIRGRPPRLPRPRPRPYMQPRP | -0.212
RRIRDRPPRLPRPRPRPKIFPRP | -0.0898
RRIRERPPRLPRPRPRPNINPRP | -1.05
RRIRMRPPRLPRPRPRPSRLPRP | 0.19
RRIRHRPPRLPRPRPRPCDTPRP | -0.214
RRIRPRPPRLPRPRPRPIIVPRP | -0.178
RRIRKRPPRLPRPRPRPELPPRP | 0.114
RRIRPRPPRLPRPRPRPQQVPRP | 0.14
RRIRIRPPRLPRPRPRPWIHPRP | 2.37
RRIRGRPPRLPRPRPRPYRTPRP | -0.108
RRIRNRPPRLPRPRPRPMLNPRP | -0.21
